B1: AbG-SR (antibody, human IgG1, kappa, V domains shown)
VH: EVQLQESGPGLVKPSQTLSLTCTVSGYSISNDFAWNWIRQLPGKGLEWMGYISYKGNTRYQPSLKSRITISRDTSKNQFFLKLNSVTAADTATYYCVTASRGLPYWGQGTLVTVSS
VL: DIQMTQSPSSMSVSVGDRVTITCHSSQDITYNIGWLQQKPGKSFKGLIYHGANLDDGVPSRFSGSGSGTDYTLTISSLQPEDFATYYCVQYDEFPWTFGGGTKLEIKR
modifications: synthon SR on reduced interchain cysteines; average DAR 2.8 per ADC
B2: AbG-KZ (antibody, human IgG1, kappa, V domains shown)
VH: EVQLQESGPGLVKPSQTLSLTCTVSGYSISNDFAWNWIRQLPGKGLEWMGYISYKGNTRYQPSLKSRITISRDTSKNQFFLKLNSVTAADTATYYCVTASRGLPYWGQGTLVTVSS
VL: DIQMTQSPSSMSVSVGDRVTITCHSSQDITYNIGWLQQKPGKSFKGLIYHGANLDDGVPSRFSGSGSGTDYTLTISSLQPEDFATYYCVQYDEFPWTFGGGTKLEIKR
modifications: synthon KZ on reduced interchain cysteines; average DAR 2.7 per ADC
B3: AbB-TV (antibody, human IgG1, kappa, V domains shown)
VH: EVQLQESGPGLVKPSQTLSLTCTVSGYSISNDFAWNWIRQPPGKGLEWMGYISYKGNTRYQPSLKSRITISRDTSKNQFFLKLNSVTAADTATYYCVTASRGFPWWGQGTLVTVSS
VL: DIQMTQSPSSMSVSVGDRVTITCHSSQDINSNIGWLQQKPGKSFKGLIYHGTNLDDGVPSRFSGSGSGTDYTLTISSLQPEDFATYYCVQYAQFPWTFGGGTKLEIKR
modifications: synthon TV on reduced interchain cysteines; average DAR 2.3 per ADC
B4: AbK-SE (antibody, human IgG1, kappa, V domains shown)
VH: EVQLQESGPGLVKPSQTLSLTCTVSGYSISRDFAWNWIRQPPGKGLEWMGYISYNGNTRYQPSLKSRITISRDTSKNQFFLKLNSVTAADTATYYCVTASRGFPWWGQGTLVTVSS
VL: DIQMTQSPSSMSVSVGDRVTITCHSSQDITYNVGWLQQKPGKSFKGLIYHGSNLDHGVPSRFSGSGSGTDYTLTISSLQPEDFATYYCVQYDDFPWTFGGGTKLEIKR
modifications: synthon SE on reduced interchain cysteines; average DAR 2.7 per ADC
B5: AbB-CZ (antibody, human IgG1, kappa, V domains shown)
VH: EVQLQESGPGLVKPSQTLSLTCTVSGYSISNDFAWNWIRQPPGKGLEWMGYISYKGNTRYQPSLKSRITISRDTSKNQFFLKLNSVTAADTATYYCVTASRGFPWWGQGTLVTVSS
VL: DIQMTQSPSSMSVSVGDRVTITCHSSQDINSNIGWLQQKPGKSFKGLIYHGTNLDDGVPSRFSGSGSGTDYTLTISSLQPEDFATYYCVQYAQFPWTFGGGTKLEIKR
modifications: synthon CZ on reduced interchain cysteines; average DAR 3.5 per ADC
B6: AbA-AAD (antibody, human IgG1, kappa, V domains shown)
VH: EVQLQESGPGLVKPSQTLSLTCTVSGYSISRDFAWNWIRQPPGKGLEWMGYISYNGNTRYQPSLKSRITISRDTSKNQFFLKLNSVTAADTATYYCVTASRGFPYWGQGTLVTVSS
VL: DIQMTQSPSSMSVSVGDRVTITCHSSQDINSNIGWLQQKPGKSFKGLIYHGTNLDDGVPSRFSGSGSGTDYTLTISSLQPEDFATYYCVQYAQFPWTFGGGTKLEIKR
modifications: synthon AAD on reduced interchain cysteines; average DAR 3.3 per ADC
B7: AbB-YY (antibody, human IgG1, kappa, V domains shown)
VH: EVQLQESGPGLVKPSQTLSLTCTVSGYSISNDFAWNWIRQPPGKGLEWMGYISYKGNTRYQPSLKSRITISRDTSKNQFFLKLNSVTAADTATYYCVTASRGFPWWGQGTLVTVSS
VL: DIQMTQSPSSMSVSVGDRVTITCHSSQDINSNIGWLQQKPGKSFKGLIYHGTNLDDGVPSRFSGSGSGTDYTLTISSLQPEDFATYYCVQYAQFPWTFGGGTKLEIKR
modifications: synthon YY on reduced interchain cysteines; average DAR 2.2 per ADC
B8: AbG-YG (antibody, human IgG1, kappa, V domains shown)
VH: EVQLQESGPGLVKPSQTLSLTCTVSGYSISNDFAWNWIRQLPGKGLEWMGYISYKGNTRYQPSLKSRITISRDTSKNQFFLKLNSVTAADTATYYCVTASRGLPYWGQGTLVTVSS
VL: DIQMTQSPSSMSVSVGDRVTITCHSSQDITYNIGWLQQKPGKSFKGLIYHGANLDDGVPSRFSGSGSGTDYTLTISSLQPEDFATYYCVQYDEFPWTFGGGTKLEIKR
modifications: synthon YG on reduced interchain cysteines; average DAR 3.7 per ADC
B9: AbK-YG (antibody, human IgG1, kappa, V domains shown)
VH: EVQLQESGPGLVKPSQTLSLTCTVSGYSISRDFAWNWIRQPPGKGLEWMGYISYNGNTRYQPSLKSRITISRDTSKNQFFLKLNSVTAADTATYYCVTASRGFPWWGQGTLVTVSS
VL: DIQMTQSPSSMSVSVGDRVTITCHSSQDITYNVGWLQQKPGKSFKGLIYHGSNLDHGVPSRFSGSGSGTDYTLTISSLQPEDFATYYCVQYDDFPWTFGGGTKLEIKR
modifications: synthon YG on reduced interchain cysteines; average DAR 0.9 per ADC
B10: AbB-AAD (antibody, human IgG1, kappa, V domains shown)
VH: EVQLQESGPGLVKPSQTLSLTCTVSGYSISNDFAWNWIRQPPGKGLEWMGYISYKGNTRYQPSLKSRITISRDTSKNQFFLKLNSVTAADTATYYCVTASRGFPWWGQGTLVTVSS
VL: DIQMTQSPSSMSVSVGDRVTITCHSSQDINSNIGWLQQKPGKSFKGLIYHGTNLDDGVPSRFSGSGSGTDYTLTISSLQPEDFATYYCVQYAQFPWTFGGGTKLEIKR
modifications: synthon AAD on reduced interchain cysteines; average DAR 2.7 per ADC
B11: AbK-ZZ (antibody, human IgG1, kappa, V domains shown)
VH: EVQLQESGPGLVKPSQTLSLTCTVSGYSISRDFAWNWIRQPPGKGLEWMGYISYNGNTRYQPSLKSRITISRDTSKNQFFLKLNSVTAADTATYYCVTASRGFPWWGQGTLVTVSS
VL: DIQMTQSPSSMSVSVGDRVTITCHSSQDITYNVGWLQQKPGKSFKGLIYHGSNLDHGVPSRFSGSGSGTDYTLTISSLQPEDFATYYCVQYDDFPWTFGGGTKLEIKR
modifications: synthon ZZ on reduced interchain cysteines; average DAR 1.9 per ADC
B12: AbB-TX (antibody, human IgG1, kappa, V domains shown)
VH: EVQLQESGPGLVKPSQTLSLTCTVSGYSISNDFAWNWIRQPPGKGLEWMGYISYKGNTRYQPSLKSRITISRDTSKNQFFLKLNSVTAADTATYYCVTASRGFPWWGQGTLVTVSS
VL: DIQMTQSPSSMSVSVGDRVTITCHSSQDINSNIGWLQQKPGKSFKGLIYHGTNLDDGVPSRFSGSGSGTDYTLTISSLQPEDFATYYCVQYAQFPWTFGGGTKLEIKR
modifications: synthon TX on reduced interchain cysteines; average DAR 2.2 per ADC
B13: AbG-TX (antibody, human IgG1, kappa, V domains shown)
VH: EVQLQESGPGLVKPSQTLSLTCTVSGYSISNDFAWNWIRQLPGKGLEWMGYISYKGNTRYQPSLKSRITISRDTSKNQFFLKLNSVTAADTATYYCVTASRGLPYWGQGTLVTVSS
VL: DIQMTQSPSSMSVSVGDRVTITCHSSQDITYNIGWLQQKPGKSFKGLIYHGANLDDGVPSRFSGSGSGTDYTLTISSLQPEDFATYYCVQYDEFPWTFGGGTKLEIKR
modifications: synthon TX on reduced interchain cysteines; average DAR 3.3 per ADC
B14: AbG-CZ (antibody, human IgG1, kappa, V domains shown)
VH: EVQLQESGPGLVKPSQTLSLTCTVSGYSISNDFAWNWIRQLPGKGLEWMGYISYKGNTRYQPSLKSRITISRDTSKNQFFLKLNSVTAADTATYYCVTASRGLPYWGQGTLVTVSS
VL: DIQMTQSPSSMSVSVGDRVTITCHSSQDITYNIGWLQQKPGKSFKGLIYHGANLDDGVPSRFSGSGSGTDYTLTISSLQPEDFATYYCVQYDEFPWTFGGGTKLEIKR
modifications: synthon CZ on reduced interchain cysteines; average DAR 3.4 per ADC
B15: AbK-ZT (antibody, human IgG1, kappa, V domains shown)
VH: EVQLQESGPGLVKPSQTLSLTCTVSGYSISRDFAWNWIRQPPGKGLEWMGYISYNGNTRYQPSLKSRITISRDTSKNQFFLKLNSVTAADTATYYCVTASRGFPWWGQGTLVTVSS
VL: DIQMTQSPSSMSVSVGDRVTITCHSSQDITYNVGWLQQKPGKSFKGLIYHGSNLDHGVPSRFSGSGSGTDYTLTISSLQPEDFATYYCVQYDDFPWTFGGGTKLEIKR
modifications: synthon ZT on reduced interchain cysteines; average DAR 1.3 per ADC
B16: AbK-XW (antibody, human IgG1, kappa, V domains shown)
VH: EVQLQESGPGLVKPSQTLSLTCTVSGYSISRDFAWNWIRQPPGKGLEWMGYISYNGNTRYQPSLKSRITISRDTSKNQFFLKLNSVTAADTATYYCVTASRGFPWWGQGTLVTVSS
VL: DIQMTQSPSSMSVSVGDRVTITCHSSQDITYNVGWLQQKPGKSFKGLIYHGSNLDHGVPSRFSGSGSGTDYTLTISSLQPEDFATYYCVQYDDFPWTFGGGTKLEIKR
modifications: synthon XW on reduced interchain cysteines; average DAR 2.8 per ADC
B17: AbK-KZ (antibody, human IgG1, kappa, V domains shown)
VH: EVQLQESGPGLVKPSQTLSLTCTVSGYSISRDFAWNWIRQPPGKGLEWMGYISYNGNTRYQPSLKSRITISRDTSKNQFFLKLNSVTAADTATYYCVTASRGFPWWGQGTLVTVSS
VL: DIQMTQSPSSMSVSVGDRVTITCHSSQDITYNVGWLQQKPGKSFKGLIYHGSNLDHGVPSRFSGSGSGTDYTLTISSLQPEDFATYYCVQYDDFPWTFGGGTKLEIKR
modifications: synthon KZ on reduced interchain cysteines; average DAR 2.3 per ADC
B18: AbK-SR (antibody, human IgG1, kappa, V domains shown)
VH: EVQLQESGPGLVKPSQTLSLTCTVSGYSISRDFAWNWIRQPPGKGLEWMGYISYNGNTRYQPSLKSRITISRDTSKNQFFLKLNSVTAADTATYYCVTASRGFPWWGQGTLVTVSS
VL: DIQMTQSPSSMSVSVGDRVTITCHSSQDITYNVGWLQQKPGKSFKGLIYHGSNLDHGVPSRFSGSGSGTDYTLTISSLQPEDFATYYCVQYDDFPWTFGGGTKLEIKR
modifications: synthon SR on reduced interchain cysteines; average DAR 2.3 per ADC
B19: AbA-TX (antibody, human IgG1, kappa, V domains shown)
VH: EVQLQESGPGLVKPSQTLSLTCTVSGYSISRDFAWNWIRQPPGKGLEWMGYISYNGNTRYQPSLKSRITISRDTSKNQFFLKLNSVTAADTATYYCVTASRGFPYWGQGTLVTVSS
VL: DIQMTQSPSSMSVSVGDRVTITCHSSQDINSNIGWLQQKPGKSFKGLIYHGTNLDDGVPSRFSGSGSGTDYTLTISSLQPEDFATYYCVQYAQFPWTFGGGTKLEIKR
modifications: synthon TX on reduced interchain cysteines; average DAR 2.8 per ADC

Columns and labels:
[1] = biological target: human EGFR (huEGFR) over-expressed on mcl-1-/- mouse embryonic fibroblasts (human, UniProt P00533 25-1210); assay: cell-based or functional assay
[2] = biological target: EGFR on EGFR positive non-small cell lung cancer cells NCI-H1650 (UniProt P00533 25-1210); assay: cell-based or functional assay

Row | Binder | huEGFR+ mcl-1-/- MEF EC50 [1] [nM] | H1650 CTG-3D EC50 [2] [µg/mL] | H1650 GFP Flourescence EC50 [2] [µg/mL]
1 | B1 | 7 | 1.31 | 1.38
2 | B2 | 96 | 38.3 | 38.2
3 | B3 | 2.4 | 0.86 | 0.74
4 | B4 | 161 | 2.67 | 1.68
5 | B5 | 5.9 | 1.27 | 0.88
6 | B6 | 65 | 0.79 | 0.36
7 | B7 | 51 | 8.6 | 7.73
8 | B8 | 1 | 1.24 | 0.63
9 | B9 | 37 | 12.3 | 10.4
10 | B10 | 4.6 | 0.16 | 0.59
11 | B11 | 45 | 0.03 | 0.16
12 | B12 | 11 | 2.39 | 3.72
13 | B13 | 5.3 | 0.15 | 0.51
14 | B14 | 3.4 | 0.07 | 0.25
15 | B15 | 0.2 | 0.05 | 0.12
16 | B16 | 0.6 | > 40 | 8.53
17 | B17 | 224 | > 40 | > 40
18 | B18 | 8.9 | 1.74 | 1.36
19 | B19 | 16 | > 40 | 13.9
